Laboratory results taken from US20140186352A1 (DEVELOPMENT CENTER FOR BIOTECHNOLOGY, published 2014).

T1: granulysin mutant RRRRR94/97/100/102/104AAAAA (Homo sapiens (Human), UniProt P22749 23-145, limits assumed)
T1 construct: not shown: His tag
T1 chain: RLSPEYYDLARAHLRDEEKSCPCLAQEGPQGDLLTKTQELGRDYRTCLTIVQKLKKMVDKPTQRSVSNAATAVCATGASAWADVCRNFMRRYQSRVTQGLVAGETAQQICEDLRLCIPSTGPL

T2: granulysin mutant RRRR97/100/104/108AAAA (Homo sapiens (Human), UniProt P22749 23-145, limits assumed)
T2 construct: Expressed in 293T cells, culture supernatant used; not shown: His tag
T2 chain: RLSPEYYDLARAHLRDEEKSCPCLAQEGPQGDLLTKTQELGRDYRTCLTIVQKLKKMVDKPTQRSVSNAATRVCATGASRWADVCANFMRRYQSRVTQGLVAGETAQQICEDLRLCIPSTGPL

T3: denatured granulysin (10His tag, expressed in 293T cells, run on denaturing SDS-PAGE) (UniProt P22749 23-145, limits assumed)
T3 construct: Same protein as native granulysin but denatured; probed on a blot with the test antibodies and anti-human-HRP; not shown: 10His tag
T3 sequence (looked up): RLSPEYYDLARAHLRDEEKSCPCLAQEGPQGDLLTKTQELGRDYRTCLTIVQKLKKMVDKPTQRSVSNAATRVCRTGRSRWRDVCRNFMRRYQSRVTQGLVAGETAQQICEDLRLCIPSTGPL

B1: BGF33-19 (antibody, V domains shown)
VH: QVQLQQSGAELVRPGTSVKVSCKASGYAFTNYLIEWVKQRPGQGLEWIGVINPGSGGTNYNEKFKGKATLTADKSSSTAYMQLSSLTSDDSAVYFCAREGEKHSYYFDYWGQGTTLTVSS
VL: DIVLTQSPASLAVSLGQRATISCRASESVDSYGDSFMHWYQQKPGQPPKLLIYLASNLESGVPARFSGSGSRTDFTLTIDPVEADDAATYYCQQNNEDPPTFGGGTKLEIKR
notes: Phage display clone
B2: GP42-09 (antibody, V domains shown)
VH: QVKLQQSGAELVRPGALVKLSCKASGFNIKDYYMHWVKQRPEQGLEWIGWIDPENGNTIYDPKFQGKASITADTSSNTAYLQLSSLTSEDSAVYFCARVGDDYDGDFDYWGQGTTVTVSS
VL: DIELTQSPASLAVSLGQRATISCRASESVDSYGDSFMHWYQQKPGQPPKLLIYRASNLESGIPARFSGSGSRTDFTLTINPVEADDVATYYCQQSYEDPYTFGGGTKLEIKR
notes: Phage display clone
B3: 34.22Chi (antibody, V domains shown)
VH: QVQLQQSGAELVRPGVSVKISCKGSGYTFTDYSIHWVKQSHAKSLEWIGVISSYYGDARHNQKFKGKATMTVDKSSSTAYMELARLTSEDSAIYYCARDGYYGYAMDYWGQGTSVTVSS
VL: DVVMTQTPLSLPVSLGDQASISCRSTQSLVHSNGNTYLHWYLQKPGQSPKLLIYKVSYRFSGVPDRFSGSGSGTDFTLKISRVEAEDLGVYFCSQSTHVPFTFGSGTKLEIKR
notes: also called chimeric antibody of the variable region of M34.22 fused with the constant region of human IgG1
B4: 16.7Chi (antibody, V domains shown)
VH: EVLLQQSGPELVKPGASVKISCKASGYTFTDYNMDWVKQSHGKSLEWIGDINPNVGDTIYNQKFKGKATLTVDKSSSTAYMELRSLTSEDSAVYYCVRSDDDYSWFAHWGQGTLVTVSA
VL: SIVMTQTPKFLLVSAGDRVTITCKASQSVSNDVAWYQQKSGQSPKLLIYYASNRYTGVPDRFTGSGYGTDFTFTISTVQAELAVYFCQQDSSSPLTFGAGTKLELKR
notes: also called chimeric antibody of the variable region of M16.7 fused with the constant region of human IgG1
B5: 106.17Chi (antibody, V domains shown)
VH: EVLLQQSGPELVKPGASVKIPCKASGYTFTDYNMDWVKQSHGKSLEWIGDINPNNGDTIYNQNFKDKATLTVNKSSSTAYMELRSLTSEDTAVYYCVRSDDNYSWFTYWGQGTLVTVSA
VL: SIVMTQTPKFLLVSAGDRVTITCKASQSVSNDVAWYQQKSGQSPKLLIYYASNRYTGVPDRFTGSGYGTDFTFTISTVQAELAVYFCQQDSSSPLTFGAGTKLELKR
notes: also called chimeric antibody of the variable region of M106.17 fused with the constant region of human IgG1
B6: BGF2A2-92 (antibody, V domains shown)
VH: EVQLVESGGGLVQPGGSLKLSCAASGFTFSDYYMYWVRQTPEKRLEWVATISDGGDYTYYPDSVKGRFTISRDNAKNNLYLQMSSLKSEDTAMYYCAREGDYYGPFAYWGQGTTLTVSS
VL: DIVMTQSQKFMSTSVGDRVSITCKASQNVGTAVAWYQQKPGQSPKALIYSASYRYSGVPDRFTGSGSGTDFTLTISNVQSEDLAEYFCQQYNSYPYTFGGGTKLEIKR
notes: Phage display clone
B7: GP42-10 (antibody, V domains shown)
VH: QVKLQQSGPDLVKPGSLVKISCKASGYTFSNYDINWVKQRPGQGLEWIGWIDPGNGRTKYNEKFEDKATLTADKSSSTAYMQLSSLTSEDSAVYFCARVGDDYDGDFDYWGQGTTVTVSS
VL: DIELTQSPTIMSASPGEKVTMTCRASESVDSYGNSFMHWYQQKPGLPPKLLIYRASNLESGIPARFSGSGSRTDFTLTINPVEADDVATYYCQQSNEYPYTFGGGTKLEIKR
notes: Phage display clone
B8: GP31-52 (antibody, V domains shown)
VH: QVQLQQSGPDLVKPGALVKISCKASGYSFTNYDINWVKQRPGQGLEWIGWIDPGNGRTKYNEKFTGKASLTADKSSSTAYMVLSSLTSENSAVYFCARVGDDYDGGFDYWGQGTTVTVSS
VL: DIELTQSPSIMAASLGQKVTMTCSASSSVSSSYLHWYQQKSGASPKPLIHRTSNLASGVPARFSGSGSGNSYSLTISSMEAEDVATYYCFQGSGYPYTFGGGTKLEIKR
notes: Phage display clone
B9: GP42-58 (antibody, V domains shown)
VH: QVKLQQSGPDLVKPGALVKISCKASGYTFTSYDINWVKQRPGQGLEWIGWIDPGDGRTKYNEKFEGKASLTADKSSSTAYMLLSSLTSDNSAVYFCARVGDDYDGGFDYWGQGTTVTVSS
VL: DIELTQSPAIMSASPGEKVTISCSASESVDSYGNSFMNWYQQKPGQPPKLLIYRASNLESGIPVRFSGGGSRTDFTLTINPVEADDVATYYCQQSNEYPYTFGGGTKLEIKR
notes: Phage display clone
B10: GP42-27 (antibody, V domains shown)
VH: QVKLQESGAELVRPGTSVKISCKASGYTFTNYDINWVKQRPGQGLEWIGWIDPGDGRTKYNENFKDKASLTADKSSSTAYMQLSSLTSEDSAVYYCARVGDDYDGGFDYWGQGTTVTVSS
VL: DIELTQSPASLAVSLGQRATISCRASESVDSYGNSFMHWYQQKPGQPPRLLIYAASNQESGIPARFSGSGSRTDFTLTINPVEADDVATYYCQQSYEDPYTFGGGTKLELKR
notes: Phage display clone

How the values were obtained:
[1] = molecular target: T1, granulysin mutant …; assay: ELISA, antibody coated, His-tagged mutant granulysin detected with anti-His-HRP
Protocol: (§1) To the antibody-coated plates, 200 μl of serially diluted samples (wild-type or mutant granulysin) were added to each well. The solutions were then incubated at 37° C. for 2 hours.
(§2) After washing to remove the unbound proteins, the bound proteins that were produced with His-tag (or any other tag or a fusion protein), can be detected with an anti-H is antibody coupled with HRP (for example, Sigma, A7058) at an appropriate dilution (e.g., 1:2000). The secondary antibodies were allowed to bind to the bound proteins by incubation at 37° C. for 2 hours (or any suitable duration and temperatures).

[2] = molecular target: T2, granulysin mutant RRRR97/100/104/108AAAA; assay: as above
Protocol: as §1, §2

[3] = molecular target: T3, denatured granulysin (10His tag, …); assay: blot of denaturing SDS-PAGE probed with the antibody, anti-human-HRP
Description: The expressed granulysin may be run on a denatured SDS-PAGE and then probed with the test antibodies. Whether the test antibodies bind to the denatured granulysin can be detected using a secondary antibody (containing a reporter group; e.g., anti-human-HRP).

| Binder | binding result [1] | binding result [2] | binding result [3] |
| --- | --- | --- | --- |
| B1 | no binding | no binding |  |
| B2 |  |  | no binding |
| B3 |  |  | no binding |
| B4 |  |  | no binding |
| B5 |  |  | no binding |
| B6 |  | no binding |  |
| B7 |  |  | no binding |
| B8 |  |  | no binding |
| B9 |  |  | no binding |
| B10 |  |  | no binding |
